From publication PMC5624926 (Nature Communications, 2017) come the findings set out here.

Details in all cases: both partners purified
For assay [1], the target named is T1, CD22_(20–687)F N231Q (human, UniProt P20273, N231Q, N-linked glycans with mature carbohydrates (HEK293F); glycosylation site N231 knocked out).
T1 construct: also called CD22 N231Q mutant; source: HEK293F, transiently transfected, secreted, purified (Ni-NTA, Superdex 200); not shown: His6, C-terminal, kept
Kind of assay: BLI; Octet RED96; CD22_(20–687) forms loaded on Ni-NTA biosensors; Fab in solution 500 to 62.5 nM; 1x PBS pH 7.4, 0.002% Tween, 0.01% BSA; 1:1 fit; triplicate.

For assay [2], the target named is T2, CD22_(20–687)S (human, UniProt P20273, N-linked glycans of high mannose type (HEK293S)).
T2 construct: differs in the glycoform; also called full-length CD22 ECD made in HEK293S (HEK293 Gnt I−/−); source: HEK293 Gnt I−/− (HEK293S), transiently transfected, secreted, purified (Ni-NTA, Superdex 200); not shown: His6, C-terminal, kept
The assay is described as above.

The target in assay [3] is T3, CD22_(20–687) (human, UniProt P20273, N-linked glycans; glycoform not stated).
T3 construct: also called full-length CD22 ECD; not shown: His6, C-terminal, kept
Kind of assay: negative-stain electron microscopy; CD22_(20–687) in complex with epratuzumab Fab, 2% uranyl formate stain; 2D class averages and ab initio 3D envelope.

B1: epratuzumab Fab (Fab, V domains shown)
VH: QVQLVQSGAEVKKPGSSVKVSCKASGYTFTSYWLHWVRQAPGQGLEWIGYINPRNDYTEYNQNFKDKATITADESTNTAYMELSSLRSEDTAFYFCARRDITTFYWGQGTTVTVSS
VL: DIQLTQSPSSLSASVGDRVTMSCKSSQSVLYSANHKNYLAWYQQKPGKAPKLLIYWASTRESGVPSRFSGSGSGTDFTLTISSLQPEDIATYYCHQYLSSWTFGGGTKLEIK
notes: heavy chain of the epratuzumab Fab, gene synthesized by GeneArt; PDB 5VL3, complex with CD22; light chain of the epratuzumab Fab, gene synthesized by GeneArt; Therapeutic anti-CD22 antibody, used as Fab; purified on KappaSelect, so the light chain should be kappa (surmised); source: HEK293F, heavy and light chain co-transfected, purified (KappaSelect, MonoS, Superdex 200)
For the molecule B1, in assay [1], the “fold improvement in affinity against WT CD22” value came out at 6 fold and the “fold increase in on-rate against WT CD22” value was 25 fold. The binding result in assay [2] is “binds”. Besides, in assay [3], the binding result is “binds”.
